Test results taken from the supplement of paper PMC12764529.
± gives the half width of the 95% confidence interval.

Assays:
[1] = folding stability dG unfold (combined trypsin and chymotrypsin); higher = more stable
Method in brief: (§1)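 K50 was inferred by Bayesian fitting of sequencing counts obtained after protease digestion of designed mini-proteins. Unfolding free energy was derived by comparison with a sequence-predicted unfolded-state K50 and a shared folded-state K50, for each protease or both combined. The mini-proteins were under 80 residues, had no cysteine, were carried in a PA-tagged cDNA display construct, and were kept only if AlphaFold2 dimer inter-PAE exceeded 15.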

[2] = folding stability dG unfold from trypsin proteolysis; higher = more stable
Method in brief: as §1

[3] = folding stability dG unfold from chymotrypsin proteolysis; higher = more stable
Method in brief: as §1

Sequence | folding stability dG unfold [1] [kcal/mol] | folding stability dG unfold [2] [kcal/mol] | folding stability dG unfold [3] [kcal/mol]
SAGGSAGGGMTPEEARALAEAAGYEDVEVTVLSRDPENNVTVVEVTARAPGGGGAASVGTYTAPSAGGSAGG [r6_699_JUSTAS] | -0.396 ± 0.18 | -0.77 ± 0.21 | -0.245 ± 0.27
SAGGSAGGGNWERVEFTFTKRVYDPKNGKPMKDVMVEIDVYRDPNEGALEIEIEMPPGFDYIMISAGGSAGG [r6_206_TrROS] | 3.93 ± 0.29 | 2.79 ± 0.28 | 4.23 ± 0.23
SAGGSAGGGPKVTVEVTESKVYELEDGSYVAVNTYTVTFEAEGKTVKVTFYRTFPKGFAGGPFSSAGGSAGG [r6_799_TrMRF] | 2.42 ± 0.17 | 2.28 ± 0.064 | 2.57 ± 0.14
SAGGSAGGGRAEILVEPVEPEPRARVVIRLEGSGRLVVFPVEEPLEPEHVEEAVEAAIKALEENSAGGSAGG [r6_330_TrMRF] | 0.393 ± 0.065 | -0.26 ± 0.17 | 0.647 ± 0.013
SAGGSAGGGSLSKPKKYELVATFTFPGTVEEAKEFLEKLLPEDWKVEIEETPDFLKIKLYKRLDSAGGSAGG [r6_952_TrMRF] | 4.06 ± 0.063 | 4.07 ± 0.13 | 4.07 ± 0.049
SAGGSAGGGSSITPVEVTPLPEDKYRVLIRITTYLPGGKPRTEEIEVEMPPDETAEEAAARVLSSAGGSAGG [r6_329_JUSTAS] | 0.367 ± 0.075 | 0.341 ± 0.044 | 0.29 ± 0.11
SAGGSAGGGYAEFETTAVLPDGRVYRAKIVLSPDPDIVKIRLFSPEGEEEIELHPDDPLLLTPGSAGGSAGG [r6_926_TrMRF] | 1.62 ± 0.051 | 1.46 ± 0.034 | 1.66 ± 0.062
SAGGSAGGGYELRVTVYDPRTGKPVAEATFTATSPEEAEARFEEIRRALPPEYLVFAEIRPVPESAGGSAGG [r6_688_TrMRF] | 5.25 ± 0.11 | 4.94 ± 0.38 | 5.19 ± 0.13
SAGGSAGGIEAVREALEDMPPGEEKEITIPVPGDPNYYIKFTIRTKGNKIKIPIEIEPMPPGQMSAGGSAGG [r6_393_TrROS] | 1.08 ± 0.38 | 0.632 ± 0.16 | 1.63 ± 0.39
SAGGSAGGIHPDVKVKLVKIVSVEEGEGEVVAKALVELPNGERVVVSSEVLKELLEENPDVDVSSAGGSAGG [r6_77_TrMRF] | 0.819 ± 0.18 | 0.301 ± 0.056 | 1.02 ± 0.067
SAGGSAGGIKAPDGQEYHIILFPITIPMEQKVERPMPDGDPRPETRTVSIKIPIWFAIPPGQKISAGGSAGG [r6_526_TrROS] | 1.29 ± 0.13 | 1.14 ± 0.029 | 1.5 ± 0.12
SAGGSAGGIKEILKEARENPENAESVTIRIPMEVPVTRYDPDNGEPETHPHPVPGEITIPPDDLSAGGSAGG [r6_560_TrROS] | 0.889 ± 0.051 | 0.435 ± 0.019 | 1.16 ± 0.043
SAGGSAGGIKYRVMVHNPESGRWHRIDDIEIDPPDGRIKIRFPGNGKEITIPPGYPIMISPDMLSAGGSAGG [r6_885_TrROS] | 0.795 ± 0.071 | 0.662 ± 0.1 | 0.793 ± 0.17
SAGGSAGGIMIDSPEQMEEFAKDFFQNGYHEVPIHVMDPNGNWQTFPFTIEVPPPKPEPDPGKKSAGGSAGG [r6_258_TrROS] | 0.111 ± 0.29 | -0.648 ± 0.12 | 0.411 ± 0.25
SAGGSAGGITIRDPDNGIEVKILKITPNHMIIQAEFPNGRNYMIEMPPDSLKPGDEIPMTVHPVSAGGSAGG [r6_152_TrROS] | -0.148 ± 0.3 | -0.008 ± 0.17 | -0.14 ± 0.41
SAGGSAGGKEFEIEKVEITVENGTITIRMIVRDKETNEYYEVEKTITFDPETKELHVEIKVKKVSAGGSAGG [r6_604_TrROS_Hall] | 3.91 ± 0.16 | 4.19 ± 0.13 | 3.23 ± 0.1
SAGGSAGGKEFKIVKVEIEEREDGRLKIHITVEPGATPEEVKKALEELGFEVEEVEVVEVEEEESAGGSAGG [r6_543_TrROS_Hall] | 2.24 ± 0.092 | 1.93 ± 0.086 | 2.368 ± 0.023
SAGGSAGGKEKLIVKIKIEKKVKLENGEEKKVKKTIVVEMTPEEVKELLKKLKKENVTEVEIFPSAGGSAGG [r6_984_TrROS_Hall] | 2.55 ± 0.26 | 2.7 ± 0.17 | 2.51 ± 0.31
